The nature of this series: protein stability index of a GFP-peptide fusion (GPS, HEK-293T) (PSI 1-6); higher = more stable. To be noted: c terminus: a fixed tail appended.

± gives the standard deviation.
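Further: 24-mer peptide tiles fused after GFP, lentivirally expressed, FACS-sorted into six equal bins by GFP/DsRed ratio, decoded by Illumina sequencing, PSI is the read-weighted mean bin number.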

For FLMDLPSAGRSMPEASDQEEHLSP [RNF180], the protein stability index is 4.82 ± 0.21 (treatment: DMSO) and 5.08 ± 0.14 (treatment: MLN4924 1 uM, 8 h).
On the same counts, the results for FLTTAIRPHGIFGPRDPQLVPILI [NSDHL] are 2.69 ± 0.53 and 2.42 ± 0.41.
On the same counts, the results for FLVVLKTVLENEDDMLLFDEQEKG [FAN1] are 2.34 ± 0.23 and 2.28 ± 0.26.
For FPELGYSYGGGSASSQHSEGSRSS [DVL3], the protein stability index runs as follows: (treatment: DMSO) 3.39 ± 0.28; (treatment: MLN4924 1 uM, 8 h) 4.03 ± 0.53.
On the same counts, the results for FPRLNRNKYMVTDGAAYIGNFDWV [PLD5] are 2.32 ± 0.89 and 2.32 ± 0.23.
For FQFLSWPDYGVPSSAASLIDFLRV [PTPN9], the protein stability index reads like this: (treatment: DMSO) 2.7 ± 0.36; (treatment: MLN4924 1 uM, 8 h) 2.53 ± 0.41.
On the same counts, the results for FRQLCYQETPGPREALTRLQELCY [ZSCAN9] are 2.48 ± 0.14 and 2.62 ± 0.25.
On the same counts, the results for FSQETVMKFVPRYSLVLELSDSGA [APMAP] are 2.75 ± 0.71 and 2.09 ± 0.27.
Take FSSYNKQDNNCHFDAALVSFINFF [SLC6A17]: the protein stability index is, setting by setting: (treatment: DMSO) 2.81 ± 0.39; (treatment: MLN4924 1 uM, 8 h) 2.64 ± 0.41.
FVDFFVRLFTQLKFGVVQTSVEEC [CLCN6] came in with a protein stability index (treatment: DMSO) of 3.59 ± 0.27 and a protein stability index (treatment: MLN4924 1 uM, 8 h) of 3.07 ± 0.68.
Regarding FYIGKYFGGVLEYFMIQALNQKTS [RHOBTB3], the protein stability index was 2.96 ± 0.33 (treatment: DMSO) and 3.31 ± 0.58 (treatment: MLN4924 1 uM, 8 h).
On the same counts, the results for FYKDWWNSTSYSNYYRTWNVVVHD [SOAT1] are 2.46 ± 0.39 and 2.15 ± 0.31.
On the same counts, the results for GALPVGSNLTSNLASLVSQGMIQL [RETREG3] are 2.21 ± 0.24 and 2.46 ± 0.16.
In the same order, the values of GAPTSLQTEPQDRSPAPMSCDKST [BCL2L11] are 5.36 ± 0.3 and 5.36 ± 0.1.
Turning to GARCATWFQDPTRFTGTMDAFVKI [SLC25A39], the protein stability index is, setting by setting: (treatment: DMSO) 2.36 ± 0.5; (treatment: MLN4924 1 uM, 8 h) 2.61 ± 0.54.
GATYLELHSLDDFYIGKYFGGVLE [RHOBTB3]: the protein stability index came to 2.6 ± 0.61 (treatment: DMSO) and 2.32 ± 0.23 (treatment: MLN4924 1 uM, 8 h).
In the same order, the values of GAVTASKHSNSPPLVTPPQSPVSP [SMTNL2] are 5.33 ± 0.25 and 5.26 ± 0.19.
In the same order, the values of GCKGFFRRSMKRKALFTCPFNGDC [VDR] are 2.47 ± 0.43 and 2.21 ± 0.14.
On the same counts, the results for GDLAYRRQEYQKALQEYSSISEKL [C8orf76] are 4.14 ± 0.25 and 4.16 ± 0.2.
Sequence GDLQETTVVTGLGPDTQDLEGQSP [PBXIP1] displayed a protein stability index (treatment: DMSO) of 5.62 ± 0.23 and a protein stability index (treatment: MLN4924 1 uM, 8 h) of 5.58 ± 0.2.
Regarding GDVAIKLKFLEENKIKVMHKQLLL [ARFIP2], the protein stability index amounted to 2.25 ± 0.31 (treatment: DMSO) and 2.12 ± 0.26 (treatment: MLN4924 1 uM, 8 h).
As for GDVMFTGTADGRVVKLENGEIETI [APMAP], the protein stability index by setting is: (treatment: DMSO) 4.73 ± 0.51; (treatment: MLN4924 1 uM, 8 h) 5.06 ± 0.29.
For the sequence GEATAAPAPLCGGPSAEAYLLHPA [TBX6], the protein stability index by setting is: (treatment: DMSO) 4.17 ± 0.22; (treatment: MLN4924 1 uM, 8 h) 4.47 ± 0.13.
In the case of GEGVDKLSLPARNQAGYFMLPTVI [ALDH8A1], the protein stability index (treatment: DMSO) is 2.19 ± 0.18 and the protein stability index (treatment: MLN4924 1 uM, 8 h) worked out at 2.36 ± 0.18.
In the same order, the values of GELLATGDKGGRVVIFQREPESKN [PPP2R2C] are 4.61 ± 0.37 and 4.93 ± 0.21.
In the same order, the values of GEQDCCGERVVINISGLRFETQLK [KCNA3] are 2.52 ± 0.21 and 2.57 ± 0.35.
The sequence GEQDTWAGEGAEALARNLLVDGET [NFE2L1] came in with a protein stability index (treatment: DMSO) of 5.18 ± 0.57 and a protein stability index (treatment: MLN4924 1 uM, 8 h) of 5.15 ± 0.46.
For GEVIHCKLRAMKELSEAAEAQHGP [STX11], the protein stability index reads like this: (treatment: DMSO) 4.03 ± 0.38; (treatment: MLN4924 1 uM, 8 h) 4.22 ± 0.11.
In the same order, the values of GEVLKSSTFSSGPSDKMKWCLRVN [SPOPL] are 2.46 ± 0.26 and 2.43 ± 0.23.
As to GFPRVAPEDEVIVNQYVIRPGPSA [RNF208], the protein stability index amounted to 3.66 ± 0.25 (treatment: DMSO) and 3.67 ± 0.13 (treatment: MLN4924 1 uM, 8 h).
In the same order, the values of GFSCNQGRYPLIQTLRQELSLPYL [CHIT1] are 2.16 ± 0.33 and 2.4 ± 0.24.
Take GGDGDDMEIFMEEMREIRRKLREL [BEX3]: the protein stability index stood at 3.13 ± 0.49 (treatment: DMSO) and 2.04 ± 0.4 (treatment: MLN4924 1 uM, 8 h).
In the same order, the values of GGFGGGVGGGFGGGFGGGDGGLLS [KRT15] are 3.4 ± 0.71 and 3.98 ± 0.14.
Turning to GGGADTGTGGEEVEALQLSARWLE [FBXO33], the protein stability index worked out at 4.91 ± 0.41 (treatment: DMSO) and 5.03 ± 0.43 (treatment: MLN4924 1 uM, 8 h).
For the sequence GGGGQGDGGSSLASGSTQRQPPPP [FBXO28], the protein stability index reads like this: (treatment: DMSO) 5.38 ± 0.19; (treatment: MLN4924 1 uM, 8 h) 5.27 ± 0.29.
On the same counts, the results for GGGPGDGGGADTGTGGEEVEALQL [FBXO33] are 5.38 ± 0.16 and 5.32 ± 0.37.

These data come from the supplement of paper PMC10567573.
